*1 amine or outer side, *2 acyl side, *3 side chain or, on linkers, in order; H or OH if unused. Bridges are numbered along the chain shown (N, C = ends). Primed or numbered codes have the meaning given here. Where no end group is shown, it is not given here. [ ]: non-standard residue; d: D form. 4‑Aminomethyl‑phenylacetyl = 4-aminomethyl-phenylacetyl unit, its amine closes the lactam, O=C(Cc1ccc(CN[*:1])cc1)[*:2]; 1,3‑dibromopropan‑2‑one(3) = linker giving 1,3-dithio-propan-2-one bridge -SCH2C(=O)CH2S- between Cys; 4‑Aminomethyl‑phenylacetyl″ = N-terminal cap residue, O=C(Cc1ccc(CN[*:1])cc1)[*:2]; 2Nal = N[C@@H](Cc1ccc2ccccc2c1)C(=O)O; AEF = NCCOc1ccc(C[C@H](N)C(=O)O)cc1; 3Pal = N[C@@H](Cc1cccnc1)C(=O)O; αMeL = CC(C)C[C@](C)(N)C(=O)O; CH2COCH2 = O=C(C[*:1])C[*:2]; αMeK = C[C@](N)(CCCCN)C(=O)O; 3Amb = NCc1cccc(C(=O)O)c1; Dab = NCC[C@H](N)C(=O)O
T1: human IL-23R endogenously expressed on DB cells (CRL-2289) (human, UniProt Q5VWK5 24-629)
T1 sequence (looked up): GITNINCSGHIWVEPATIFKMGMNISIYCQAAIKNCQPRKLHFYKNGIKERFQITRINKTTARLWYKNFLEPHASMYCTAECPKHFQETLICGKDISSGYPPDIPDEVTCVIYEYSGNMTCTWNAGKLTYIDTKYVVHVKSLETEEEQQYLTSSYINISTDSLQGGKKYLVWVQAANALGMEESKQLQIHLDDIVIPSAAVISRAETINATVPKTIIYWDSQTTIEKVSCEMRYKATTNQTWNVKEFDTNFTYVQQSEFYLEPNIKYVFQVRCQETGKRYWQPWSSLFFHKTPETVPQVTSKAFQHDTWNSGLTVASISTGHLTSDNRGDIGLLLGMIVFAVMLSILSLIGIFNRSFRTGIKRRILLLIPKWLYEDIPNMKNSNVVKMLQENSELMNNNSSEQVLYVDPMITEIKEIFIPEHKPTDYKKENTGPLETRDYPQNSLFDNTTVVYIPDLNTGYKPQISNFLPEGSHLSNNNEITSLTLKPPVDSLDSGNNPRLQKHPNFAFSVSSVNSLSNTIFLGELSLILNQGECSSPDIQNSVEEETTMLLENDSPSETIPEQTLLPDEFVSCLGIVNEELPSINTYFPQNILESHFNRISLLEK

T2: Nluc-IL23R fusion protein (human, UniProt Q5VWK5 22-629)
T2 construct: range 22-629; Stably expressed in HEK293 cells; also called hIL-23R; human IL-23R fused to a Nanoluc luciferase enzyme; not shown: Nanoluc luciferase (Promega N1371 plasmid) at the N-terminus
T2 sequence (looked up): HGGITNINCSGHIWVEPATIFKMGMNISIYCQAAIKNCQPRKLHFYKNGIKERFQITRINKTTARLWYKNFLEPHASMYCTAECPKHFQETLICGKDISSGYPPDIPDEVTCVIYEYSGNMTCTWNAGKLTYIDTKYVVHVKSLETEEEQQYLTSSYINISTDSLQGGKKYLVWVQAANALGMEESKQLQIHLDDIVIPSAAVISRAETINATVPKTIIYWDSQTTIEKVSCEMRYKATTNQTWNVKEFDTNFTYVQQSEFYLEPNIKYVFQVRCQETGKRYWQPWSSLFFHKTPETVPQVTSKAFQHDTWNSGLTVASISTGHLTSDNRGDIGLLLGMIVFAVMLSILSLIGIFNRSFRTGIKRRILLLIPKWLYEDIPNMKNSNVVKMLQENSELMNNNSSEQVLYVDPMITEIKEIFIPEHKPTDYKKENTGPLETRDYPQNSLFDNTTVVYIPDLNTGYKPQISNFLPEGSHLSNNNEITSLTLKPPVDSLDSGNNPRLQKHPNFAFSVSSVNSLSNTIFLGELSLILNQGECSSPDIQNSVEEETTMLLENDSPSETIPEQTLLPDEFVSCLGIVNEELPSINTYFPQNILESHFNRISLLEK

B1: Compound 58 (peptide)
peptide: Ac-DESCWQCW[2Nal][αMeL]KENG-NH2
modifications: lactam 2-11; linker 4-7 via CH2COCH2
SMILES: CC(=O)N[C@@H](CC(=O)O)C(=O)N[C@H]1CCC(=O)NCCCC[C@@H](C(=O)N[C@@H](CCC(=O)O)C(=O)N[C@@H](CC(N)=O)C(=O)NCC(N)=O)NC(=O)[C@](C)(CC(C)C)NC(=O)[C@H](Cc2ccc3ccccc3c2)NC(=O)[C@H](Cc2c[nH]c3ccccc23)NC(=O)[C@@H]2CSCC(=O)CSC[C@H](NC(=O)[C@H](CO)NC1=O)C(=O)N[C@@H](Cc1c[nH]c3ccccc13)C(=O)N[C@@H](CCC(N)=O)C(=O)N2
B2: Compound 60 (peptide)
peptide: Ac-DESCWQCW[2Nal][αMeL]KG-NH2
modifications: lactam 2-11; linker 4-7 via CH2COCH2
SMILES: CC(=O)N[C@@H](CC(=O)O)C(=O)N[C@H]1CCC(=O)NCCCC[C@@H](C(=O)NCC(N)=O)NC(=O)[C@](C)(CC(C)C)NC(=O)[C@H](Cc2ccc3ccccc3c2)NC(=O)[C@H](Cc2c[nH]c3ccccc23)NC(=O)[C@@H]2CSCC(=O)CSC[C@H](NC(=O)[C@H](CO)NC1=O)C(=O)N[C@@H](Cc1c[nH]c3ccccc13)C(=O)N[C@@H](CCC(N)=O)C(=O)N2
B3: Compound 61 (peptide)
peptide: Ac-DESCWQCW[2Nal][αMeK]KENG-NH2
modifications: lactam 2-11; linker 4-7 via CH2COCH2
SMILES: CC(=O)N[C@@H](CC(=O)O)C(=O)N[C@H]1CCC(=O)NCCCC[C@@H](C(=O)N[C@@H](CCC(=O)O)C(=O)N[C@@H](CC(N)=O)C(=O)NCC(N)=O)NC(=O)[C@](C)(CCCCN)NC(=O)[C@H](Cc2ccc3ccccc3c2)NC(=O)[C@H](Cc2c[nH]c3ccccc23)NC(=O)[C@@H]2CSCC(=O)CSC[C@H](NC(=O)[C@H](CO)NC1=O)C(=O)N[C@@H](Cc1c[nH]c3ccccc13)C(=O)N[C@@H](CCC(N)=O)C(=O)N2
B4: Compound 78 (peptide)
peptide: [3Amb]SCWQC[AEF][2Nal][αMeL]ER[3Pal]-NH2
modifications: lactam (positions not given here); linker 3-6 via CH2COCH2; not fully specified (bridges); printed as [(3-Aminomethyl)benzoyl](1c)*SC(2a)WQC(2a)[Y(2-aminoethoxy)][2-Nal][2-Me-Leu]E(1c)R[3-(3-Pyridyl)-Ala]-[NH2]
B5: Compound 81 (peptide)
peptide: [4‑Aminomethyl‑phenylacetyl]SCWQC[AEF][2Nal][αMeL]ES-NH2
modifications: lactam (positions not given here); linker 3-6 via CH2COCH2; not fully specified (bridges); printed as [4-Aminomethyl-phenylacetyl](1c)*SC(2a)WQC(2a)[Y(2-aminoethoxy)][2-Nal][2-Me-Leu]E(1c)S-[NH2]
B6: Compound 55 (peptide)
peptide: DEQCWQCYWXKR
HELM: PEPTIDE1{[ac].D.E.Q.C.W.Q.C.Y.W.[CC(C)C[C@](C)(N[*:1])C(=O)[*:2]].K.R.[am]}|CHEM1{[O=C(C[*:1])C[*:2]]}$PEPTIDE1,PEPTIDE1,3:R3-12:R3|PEPTIDE1,CHEM1,5:R3-1:R1|PEPTIDE1,CHEM1,8:R3-1:R2$$$V2.0
SMILES: CC(=O)N[C@@H](CC(=O)O)C(=O)N[C@H]1CCC(=O)NCCCC[C@@H](C(=O)N[C@@H](CCCNC(=N)N)C(N)=O)NC(=O)[C@](C)(CC(C)C)NC(=O)[C@H](Cc2c[nH]c3ccccc23)NC(=O)[C@H](Cc2ccc(O)cc2)NC(=O)[C@@H]2CSCC(=O)CSC[C@H](NC(=O)[C@H](CCC(N)=O)NC1=O)C(=O)N[C@@H](Cc1c[nH]c3ccccc13)C(=O)N[C@@H](CCC(N)=O)C(=O)N2
B7: Compound 82 (peptide)
peptide: [4‑Aminomethyl‑phenylacetyl]SCWQC[AEF][2Nal][αMeL]E[Dab]-NH2
modifications: lactam (positions not given here); linker 3-6 via CH2COCH2; not fully specified (bridges); printed as [4-Aminomethyl-phenylacetyl](1c)*SC(2a)WQC(2a)[Y(2-aminoethoxy)][2-Nal][2-Me-Leu]E(1c)[Dab]-[NH2]
B8: Compound 122 (peptide)
peptide: [4‑Aminomethyl‑phenylacetyl″]SEWQ[Dab][AEF][2Nal][αMeL]E[Dab][3Pal]-NH2
modifications: lactam N-10, 3-6
SMILES: CC(C)C[C@]1(C)NC(=O)[C@H](Cc2ccc3ccccc3c2)NC(=O)[C@H](Cc2ccc(OCCN)cc2)NC(=O)[C@@H]2CCNC(=O)CC[C@H](NC(=O)[C@H](CO)NC(=O)Cc3ccc(cc3)CNC(=O)CC[C@@H](C(=O)N[C@@H](CCN)C(=O)N[C@@H](Cc3cccnc3)C(N)=O)NC1=O)C(=O)N[C@@H](Cc1c[nH]c3ccccc13)C(=O)N[C@@H](CCC(N)=O)C(=O)N2
B9: Compound 52 (peptide)
peptide: [4‑Aminomethyl‑phenylacetyl]SCWQC[AEF][2Nal][αMeL]ER-NH2
modifications: lactam N-10; linker 3-6 via CH2COCH2
SMILES: CC(C)C[C@]1(C)NC(=O)[C@H](Cc2ccc3ccccc3c2)NC(=O)[C@H](Cc2ccc(OCCN)cc2)NC(=O)[C@@H]2CSCC(=O)CSC[C@H](NC(=O)[C@H](CO)NC(=O)Cc3ccc(cc3)CNC(=O)CC[C@@H](C(=O)N[C@@H](CCCNC(=N)N)C(N)=O)NC1=O)C(=O)N[C@@H](Cc1c[nH]c3ccccc13)C(=O)N[C@@H](CCC(N)=O)C(=O)N2
B10: Compound 59 (peptide)
peptide: Ac-DESCWQCW[2Nal][αMeL]KNG-NH2
modifications: lactam 2-11; linker 4-7 via CH2COCH2
SMILES: CC(=O)N[C@@H](CC(=O)O)C(=O)N[C@H]1CCC(=O)NCCCC[C@@H](C(=O)N[C@@H](CC(N)=O)C(=O)NCC(N)=O)NC(=O)[C@](C)(CC(C)C)NC(=O)[C@H](Cc2ccc3ccccc3c2)NC(=O)[C@H](Cc2c[nH]c3ccccc23)NC(=O)[C@@H]2CSCC(=O)CSC[C@H](NC(=O)[C@H](CO)NC1=O)C(=O)N[C@@H](Cc1c[nH]c3ccccc13)C(=O)N[C@@H](CCC(N)=O)C(=O)N2
B11: Compound 80 (peptide)
peptide: [4‑Aminomethyl‑phenylacetyl]SCWQC[AEF][2Nal][αMeL]E[dR]-NH2
modifications: lactam (positions not given here); linker 3-6 via CH2COCH2; not fully specified (bridges); printed as [4-Aminomethyl-phenylacetyl](1c)*SC(2a)WQC(2a)[Y(2-aminoethoxy)][2-Nal][2-Me-Leu]E(1c)[{d}R]-[NH2]

What follows are binders tested against T1, human IL-23R endogenously expressed on … (assay: cell-based or functional assay).

Point of comparison: B2, “IC50 (pSTAT3)” value 666 nM. Against it:
- B1 — lower, 597 nM
- [4‑Aminomethyl‑phenylacetyl]SEWQ[Dab][AEF][2Nal][αMeL]E[Dab]-NH2 (lactam N-10, 3-6) [Compound 125] — lower, 21.2 nM
- [3Amb]SCWQC[AEF][2Nal][αMeL]E[dR]-NH2 (lactam N-10; linker 3-6 via CH2COCH2) [Compound 41] — lower, 29.4 nM
- [4‑Aminomethyl‑phenylacetyl]SCWQC[AEF][2Nal][αMeL]E[Dab][3Pal]-NH2 (lactam N-10; linker 3-6 via 1,3‑dibromopropan‑2‑one(3)) [Compound 120] — lower, 54.2 pM
- B4 — lower, 0.132 nM
- B5 — lower, 20.7 nM
- B7 — lower, 11.1 nM
- B8 — lower, 27.7 pM
- B9 — lower, 7.85 nM
- B10 — lower, 297 nM
- B11 — lower, 10.5 nM

B3 and B6 cannot be ordered by “IC50 (pSTAT3)” value: > 1 µM for the first, > 1 µM for the second.

Each binder was assayed against T2, Nluc-IL23R fusion protein (assay: BRET displacement of TAMRA-labelled peptide, Nluc-IL23R membranes).

Point of comparison: B5, Ki 0.318 nM. Against it:
- [4‑Aminomethyl‑phenylacetyl]SEWQ[Dab][AEF][2Nal][αMeL]E[Dab]-NH2 (lactam N-10, 3-6) [Compound 125] — 1.9-fold higher, 0.599 nM
- [3Amb]SCWQC[AEF][2Nal][αMeL]E[dR]-NH2 (lactam N-10; linker 3-6 via CH2COCH2) [Compound 41] — 7.3-fold higher, 2.31 nM
- [4‑Aminomethyl‑phenylacetyl]SCWQC[AEF][2Nal][αMeL]E[Dab][3Pal]-NH2 (lactam N-10; linker 3-6 via 1,3‑dibromopropan‑2‑one(3)) [Compound 120] — 34-fold lower, 0.00938 nM
- B4 — 16-fold lower, 0.0205 nM
- B7 — 4.8-fold lower, 0.0665 nM
- B8 — 59-fold lower, 0.00541 nM
- B9 — 6.7-fold lower, 0.0475 nM
- B11 — 2.1-fold lower, 0.15 nM

Biological target: T2, Nluc-IL23R fusion protein
Assay: as above
Remark: another data set of the same source

Point of comparison: B10, Ki 139 nM. Against it:
- B1 — within 1.5-fold, 201 nM
- B2 — 1.5-fold higher, 212 nM
- B3 — 3.1-fold higher, 436 nM
- B6 — 2-fold higher, 272 nM
